This note sets out measurements from paper PMC10689493 (Nature Communications, 2023).

The target of experiment [1] is SARS-CoV-1 Spike protein, 2 P (SARS-CoV-1, isolate , UniProt P59594, stabilised). Description: ELISA. The following applies: both partners purified. In general terms: In an ELISA, binding on a coated surface is turned into a signal by an enzyme label.
For a further experiment, the target named is MERS Spike protein, 2 P (MERS-CoV, isolate  (entry: …, UniProt K9N5Q8, stabilised)). Description: ELISA. Particulars: both partners purified.

B1: S2P6 mAb (antibody, V domains shown)
VH: EVQLVQSGAEVKKPGASVKVSCKASGYTFTSQYMHWVRQAPGQGLEWIGIINPSGVHTSYAQKFQGRVTLTRDTSTSTLYMELSSLRSEDTAVYYCARGSPKGAFDYWGQGTLVTVSS
VL: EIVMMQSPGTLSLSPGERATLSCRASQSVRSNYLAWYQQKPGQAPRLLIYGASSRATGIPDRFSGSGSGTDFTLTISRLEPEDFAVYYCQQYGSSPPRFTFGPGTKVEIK
notes: IgG; IGHV1-46/IGKV3-20; source: Expi293F, transfected, purified (Protein A)
In the case of B1, the binding result in experiment [1] is recorded as “binds”; with MERS Spike protein, 2 P, “binds”.

B2: CC40.8 mAb (antibody, V domains shown)
VH: EVQLLESGGGLVQPGGSLRLSCAASGFTFSSYVMTWARQAPGKGLEWVSAISGTGYTYYADSVKGRFTVSRDNSKNTLFLQMSSLRAEDTAVYYCAITMAPVVWGQGTTVTVSS
VL: SYELTQPPSVSVSPGQTARITCSGDALPKRYAYWYQQKSGQAPILVIYEDKKRPSGIPERLSGSKSGTVATLTISGAQVEDEADYYCYSTDSSGNHAVFGGGTQLTVL
notes: IgG; source: Expi293F, transfected, purified (Protein A)
For the molecule B2, in experiment [1], the binding result is “binds”.
